Test results as given in the supplement of paper PMC10065799, “High-throughput profiling of sequence recognition by tyrosine kinases and SH2 domains using bacterial peptide display” (eLife, 2023).

Target: Jak2 (UniProt O60674)
Test: phosphorylation enrichment, bacterial display (enrichment ratio); higher = better substrate or ligand; peptides without Tyr show the background
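Note: 11-residue human phosphosite peptides and single-mutation variants displayed on the E. coli surface, counted by deep sequencing, each peptide's frequency after selection divided by its frequency in the unselected input library; frequency after pTyr selection over input frequency; kinase dosed for 20-30% of maximal phosphorylation in three min.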

Chain of Jak2 (O60674 whole entry, looked up): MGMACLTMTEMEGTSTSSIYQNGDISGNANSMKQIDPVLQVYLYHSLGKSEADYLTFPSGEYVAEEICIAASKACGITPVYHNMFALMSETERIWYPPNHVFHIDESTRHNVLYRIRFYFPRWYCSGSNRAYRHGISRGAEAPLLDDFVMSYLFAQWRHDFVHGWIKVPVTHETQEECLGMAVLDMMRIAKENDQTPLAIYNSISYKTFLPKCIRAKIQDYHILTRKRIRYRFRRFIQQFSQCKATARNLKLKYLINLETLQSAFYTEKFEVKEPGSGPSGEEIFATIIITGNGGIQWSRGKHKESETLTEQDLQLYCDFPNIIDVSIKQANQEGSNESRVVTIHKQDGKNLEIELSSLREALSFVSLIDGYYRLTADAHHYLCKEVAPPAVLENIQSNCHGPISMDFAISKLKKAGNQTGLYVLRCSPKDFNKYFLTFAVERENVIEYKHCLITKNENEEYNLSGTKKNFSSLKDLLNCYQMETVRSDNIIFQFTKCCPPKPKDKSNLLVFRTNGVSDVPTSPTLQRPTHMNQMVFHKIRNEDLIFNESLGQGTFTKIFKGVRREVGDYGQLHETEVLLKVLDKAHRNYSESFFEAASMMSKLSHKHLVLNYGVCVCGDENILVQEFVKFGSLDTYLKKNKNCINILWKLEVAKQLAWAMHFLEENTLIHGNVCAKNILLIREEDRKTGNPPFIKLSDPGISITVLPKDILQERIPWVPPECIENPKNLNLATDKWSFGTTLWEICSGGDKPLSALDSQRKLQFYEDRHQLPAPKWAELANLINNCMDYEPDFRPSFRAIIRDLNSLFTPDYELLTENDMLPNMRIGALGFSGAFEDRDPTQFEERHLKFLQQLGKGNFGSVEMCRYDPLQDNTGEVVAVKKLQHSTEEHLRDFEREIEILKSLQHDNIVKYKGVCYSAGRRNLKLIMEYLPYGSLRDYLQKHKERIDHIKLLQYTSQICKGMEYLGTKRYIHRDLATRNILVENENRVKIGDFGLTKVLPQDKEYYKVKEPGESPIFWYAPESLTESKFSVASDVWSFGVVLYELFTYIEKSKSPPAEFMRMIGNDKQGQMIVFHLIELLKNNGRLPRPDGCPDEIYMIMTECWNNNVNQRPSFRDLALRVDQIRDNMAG

| Sequence | phosphorylation enrichment |
| --- | --- |
| PATINYLFEKG [NDUFS8_Y84_P85L] | 0.703 |
| PSRKDYETYQP [CTNND2_Y1154] | 0.677 |
| AHLTEYLSTHY [UQCRC1_Y219_D215H] | 0.647 |
| YEEDSYVTRSQ [RET_Y905_K907T] | 1.04 |
| FKTPTYPFLLP [PLD2_Y578_YF] | 0.815 |
| SFLSFYTSHVQ [NEFL_Y443_P440L_YF] | 1.1 |
| EYDRLYEEYTR [PIK3R1_Y467] | 1.21 |
| RRIFSYRGHLW [VHL_Y112_H110Y_YF] | 0.587 |
| SSQHRYSTPHA [RAF1_Y232] | 0.403 |
| SWSTSYSGFRC [NKAPL_Y91_Y96C_YF] | 0.877 |
| LYEDHYLLGTS [ASS1_Y87_R86H] | 2.17 |
| PPKFFYTRKLL [CYBB_Y41] | 0.658 |
| KKKKQYKGKYL [CASK_Y708_D710G] | 0.507 |
| IGMFSYVMLAS [GGCX_Y301] | 1.57 |
| PADCRYFTFPQ [GAMT_Y222_A224T_YF] | 2.88 |
| LRAGVYPEKDQ [DNM2_Y626] | 0.773 |
| AAVDNYCRHNY [HLA-DRB1_Y107_T106N] | 0.612 |

| Sequence | phosphorylation enrichment |
| --- | --- |
| LTERGYSFVTT [ACTA1_Y200] | 1.1 |
| CTTIHYNYRCN [TP53_Y234_M237R] | 0.832 |
| HDHYGYRQSVT [CD55_Y245_R240H] | 1.06 |
| NKFTTYLPWLP [C9orf24_Y126_R129W_YF] | 1.75 |
| LLLLFCVVRFC [MPZ_Y177_Y177C_YF] | 0.607 |
| CTTIHYNYMSN [TP53_Y234_C238S] | 0.756 |
| AVLSLCASGRT [ACTA2_Y145_Y145C] | 0.959 |
| SIYKDYYRYNF [PLA2G2D_Y85] | 8.28 |
| NTQRPYFKGGG [TYROBP_Y111_YF] | 0.904 |
| ILTLKYPIERG [ACTA1_Y71_H75R] | 0.675 |
| LSAPCYLNRIS [HEXA_Y421_W420C] | 0.634 |
| MKNDLYQTPLH [NFKB1_Y582_R578K] | 0.727 |
| SGAWSYNTSTE [SELE_Y24] | 0.881 |
| KDQGTYEDYVE [MYL6_Y86] | 1.13 |
| FFHCTYKKRMI [CLEC12A_Y242_YF] | 0.816 |
| GIFKDYFRFNF [PLA2G2D_Y85_S80G_YF] | 3.79 |

Target: Fyn (UniProt P06241)
Sequence (P06241 whole entry, looked up): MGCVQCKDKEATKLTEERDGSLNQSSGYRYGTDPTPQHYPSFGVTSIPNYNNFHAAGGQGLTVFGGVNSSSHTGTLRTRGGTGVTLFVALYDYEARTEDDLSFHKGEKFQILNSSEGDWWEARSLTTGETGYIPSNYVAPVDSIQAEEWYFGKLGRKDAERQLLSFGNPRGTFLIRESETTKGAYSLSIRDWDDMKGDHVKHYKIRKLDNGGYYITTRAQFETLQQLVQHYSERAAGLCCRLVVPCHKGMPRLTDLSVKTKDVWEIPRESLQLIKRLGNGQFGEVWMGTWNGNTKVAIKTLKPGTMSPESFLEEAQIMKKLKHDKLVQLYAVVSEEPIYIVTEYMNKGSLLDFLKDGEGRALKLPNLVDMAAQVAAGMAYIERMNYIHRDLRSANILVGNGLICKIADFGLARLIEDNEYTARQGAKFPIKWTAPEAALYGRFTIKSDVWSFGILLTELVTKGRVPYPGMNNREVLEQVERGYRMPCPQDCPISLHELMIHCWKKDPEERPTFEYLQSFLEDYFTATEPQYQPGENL
Test: as above

| Sequence | phosphorylation enrichment |
| --- | --- |
| PATINYLFEKG [NDUFS8_Y84_P85L] | 0.357 |
| PSRKDYETYQP [CTNND2_Y1154] | 0.55 |
| AHLTEYLSTHY [UQCRC1_Y219_D215H] | 0.402 |
| YEEDSYVTRSQ [RET_Y905_K907T] | 0.499 |
| FKTPTYPFLLP [PLD2_Y578_YF] | 0.413 |
| SFLSFYTSHVQ [NEFL_Y443_P440L_YF] | 0.421 |
| EYDRLYEEYTR [PIK3R1_Y467] | 7.8 |
| RRIFSYRGHLW [VHL_Y112_H110Y_YF] | 0.763 |
| SSQHRYSTPHA [RAF1_Y232] | 0.357 |
| SWSTSYSGFRC [NKAPL_Y91_Y96C_YF] | 0.643 |
| LYEDHYLLGTS [ASS1_Y87_R86H] | 1.86 |
| PPKFFYTRKLL [CYBB_Y41] | 0.779 |
| KKKKQYKGKYL [CASK_Y708_D710G] | 0.57 |
| IGMFSYVMLAS [GGCX_Y301] | 0.444 |
| PADCRYFTFPQ [GAMT_Y222_A224T_YF] | 0.61 |
| LRAGVYPEKDQ [DNM2_Y626] | 0.454 |
| AAVDNYCRHNY [HLA-DRB1_Y107_T106N] | 0.388 |

| Sequence | phosphorylation enrichment |
| --- | --- |
| LTERGYSFVTT [ACTA1_Y200] | 0.582 |
| CTTIHYNYRCN [TP53_Y234_M237R] | 0.498 |
| HDHYGYRQSVT [CD55_Y245_R240H] | 0.94 |
| NKFTTYLPWLP [C9orf24_Y126_R129W_YF] | 5.73 |
| LLLLFCVVRFC [MPZ_Y177_Y177C_YF] | 0.712 |
| CTTIHYNYMSN [TP53_Y234_C238S] | 0.396 |
| AVLSLCASGRT [ACTA2_Y145_Y145C] | 0.366 |
| SIYKDYYRYNF [PLA2G2D_Y85] | 4.34 |
| NTQRPYFKGGG [TYROBP_Y111_YF] | 0.428 |
| ILTLKYPIERG [ACTA1_Y71_H75R] | 0.554 |
| LSAPCYLNRIS [HEXA_Y421_W420C] | 0.377 |
| MKNDLYQTPLH [NFKB1_Y582_R578K] | 1.16 |
| SGAWSYNTSTE [SELE_Y24] | 0.499 |
| KDQGTYEDYVE [MYL6_Y86] | 0.647 |
| FFHCTYKKRMI [CLEC12A_Y242_YF] | 0.364 |
| GIFKDYFRFNF [PLA2G2D_Y85_S80G_YF] | 0.501 |

Tested on: AncSZ
Test: as above

| Sequence | phosphorylation enrichment |
| --- | --- |
| PATINYLFEKG [NDUFS8_Y84_P85L] | 0.754 |
| PSRKDYETYQP [CTNND2_Y1154] | 1.04 |
| AHLTEYLSTHY [UQCRC1_Y219_D215H] | 0.716 |
| YEEDSYVTRSQ [RET_Y905_K907T] | 1.21 |
| FKTPTYPFLLP [PLD2_Y578_YF] | 0.641 |
| SFLSFYTSHVQ [NEFL_Y443_P440L_YF] | 1.21 |
| EYDRLYEEYTR [PIK3R1_Y467] | 2.49 |
| RRIFSYRGHLW [VHL_Y112_H110Y_YF] | 0.834 |
| SSQHRYSTPHA [RAF1_Y232] | 0.682 |
| SWSTSYSGFRC [NKAPL_Y91_Y96C_YF] | 0.985 |
| LYEDHYLLGTS [ASS1_Y87_R86H] | 1.66 |
| PPKFFYTRKLL [CYBB_Y41] | 1.12 |
| KKKKQYKGKYL [CASK_Y708_D710G] | 0.667 |
| IGMFSYVMLAS [GGCX_Y301] | 1.21 |
| PADCRYFTFPQ [GAMT_Y222_A224T_YF] | 1.1 |
| LRAGVYPEKDQ [DNM2_Y626] | 0.754 |
| AAVDNYCRHNY [HLA-DRB1_Y107_T106N] | 0.621 |

| Sequence | phosphorylation enrichment |
| --- | --- |
| LTERGYSFVTT [ACTA1_Y200] | 1.4 |
| CTTIHYNYRCN [TP53_Y234_M237R] | 0.797 |
| HDHYGYRQSVT [CD55_Y245_R240H] | 0.801 |
| NKFTTYLPWLP [C9orf24_Y126_R129W_YF] | 1.04 |
| LLLLFCVVRFC [MPZ_Y177_Y177C_YF] | 1.01 |
| CTTIHYNYMSN [TP53_Y234_C238S] | 0.793 |
| AVLSLCASGRT [ACTA2_Y145_Y145C] | 0.898 |
| SIYKDYYRYNF [PLA2G2D_Y85] | 1.39 |
| NTQRPYFKGGG [TYROBP_Y111_YF] | 0.533 |
| ILTLKYPIERG [ACTA1_Y71_H75R] | 0.669 |
| LSAPCYLNRIS [HEXA_Y421_W420C] | 0.825 |
| MKNDLYQTPLH [NFKB1_Y582_R578K] | 1.4 |
| SGAWSYNTSTE [SELE_Y24] | 0.788 |
| KDQGTYEDYVE [MYL6_Y86] | 1.24 |
| FFHCTYKKRMI [CLEC12A_Y242_YF] | 0.894 |
| GIFKDYFRFNF [PLA2G2D_Y85_S80G_YF] | 1.16 |

Target: FGFR1 (UniProt P11362)
Sequence (P11362 whole entry, looked up): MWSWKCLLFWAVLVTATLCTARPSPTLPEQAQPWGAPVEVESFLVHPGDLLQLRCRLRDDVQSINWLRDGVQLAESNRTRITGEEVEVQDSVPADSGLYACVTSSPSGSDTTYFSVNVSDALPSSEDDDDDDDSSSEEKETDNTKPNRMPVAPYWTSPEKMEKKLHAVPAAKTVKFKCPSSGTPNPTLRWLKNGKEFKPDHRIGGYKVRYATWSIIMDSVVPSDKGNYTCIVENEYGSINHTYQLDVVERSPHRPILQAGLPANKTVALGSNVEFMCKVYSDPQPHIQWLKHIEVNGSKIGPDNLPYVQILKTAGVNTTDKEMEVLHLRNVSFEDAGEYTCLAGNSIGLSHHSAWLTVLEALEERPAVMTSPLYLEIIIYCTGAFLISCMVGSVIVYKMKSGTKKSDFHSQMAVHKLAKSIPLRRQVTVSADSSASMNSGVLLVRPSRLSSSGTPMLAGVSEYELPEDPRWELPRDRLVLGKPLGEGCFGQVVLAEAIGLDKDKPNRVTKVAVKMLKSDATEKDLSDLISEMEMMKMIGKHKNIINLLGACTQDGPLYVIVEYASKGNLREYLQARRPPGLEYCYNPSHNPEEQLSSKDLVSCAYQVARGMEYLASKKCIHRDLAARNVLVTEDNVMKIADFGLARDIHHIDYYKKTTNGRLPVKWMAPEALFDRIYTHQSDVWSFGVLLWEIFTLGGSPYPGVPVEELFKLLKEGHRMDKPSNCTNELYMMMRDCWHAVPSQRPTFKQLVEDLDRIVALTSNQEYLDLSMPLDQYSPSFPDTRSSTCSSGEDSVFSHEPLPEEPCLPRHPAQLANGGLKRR
Test: as above

| Sequence | phosphorylation enrichment |
| --- | --- |
| PATINYLFEKG [NDUFS8_Y84_P85L] | 0.796 |
| PSRKDYETYQP [CTNND2_Y1154] | 0.592 |
| AHLTEYLSTHY [UQCRC1_Y219_D215H] | 0.475 |
| YEEDSYVTRSQ [RET_Y905_K907T] | 0.604 |
| FKTPTYPFLLP [PLD2_Y578_YF] | 0.652 |
| SFLSFYTSHVQ [NEFL_Y443_P440L_YF] | 0.531 |
| EYDRLYEEYTR [PIK3R1_Y467] | 0.826 |
| RRIFSYRGHLW [VHL_Y112_H110Y_YF] | 0.731 |
| SSQHRYSTPHA [RAF1_Y232] | 0.364 |
| SWSTSYSGFRC [NKAPL_Y91_Y96C_YF] | 0.528 |
| LYEDHYLLGTS [ASS1_Y87_R86H] | 0.689 |
| PPKFFYTRKLL [CYBB_Y41] | 1.22 |
| KKKKQYKGKYL [CASK_Y708_D710G] | 0.474 |
| IGMFSYVMLAS [GGCX_Y301] | 0.598 |
| PADCRYFTFPQ [GAMT_Y222_A224T_YF] | 1.2 |
| LRAGVYPEKDQ [DNM2_Y626] | 0.467 |
| AAVDNYCRHNY [HLA-DRB1_Y107_T106N] | 0.521 |

| Sequence | phosphorylation enrichment |
| --- | --- |
| LTERGYSFVTT [ACTA1_Y200] | 0.927 |
| CTTIHYNYRCN [TP53_Y234_M237R] | 0.502 |
| HDHYGYRQSVT [CD55_Y245_R240H] | 0.695 |
| NKFTTYLPWLP [C9orf24_Y126_R129W_YF] | 1.43 |
| LLLLFCVVRFC [MPZ_Y177_Y177C_YF] | 0.973 |
| CTTIHYNYMSN [TP53_Y234_C238S] | 0.499 |
| AVLSLCASGRT [ACTA2_Y145_Y145C] | 0.505 |
| SIYKDYYRYNF [PLA2G2D_Y85] | 13.6 |
| NTQRPYFKGGG [TYROBP_Y111_YF] | 0.364 |
| ILTLKYPIERG [ACTA1_Y71_H75R] | 0.572 |
| LSAPCYLNRIS [HEXA_Y421_W420C] | 0.495 |
| MKNDLYQTPLH [NFKB1_Y582_R578K] | 0.473 |
| SGAWSYNTSTE [SELE_Y24] | 0.52 |
| KDQGTYEDYVE [MYL6_Y86] | 0.534 |
| FFHCTYKKRMI [CLEC12A_Y242_YF] | 0.386 |
| GIFKDYFRFNF [PLA2G2D_Y85_S80G_YF] | 4.19 |
